Measured values published in publication PMC3630463 (Nature communications, 2013).

Columns and labels:
[1] = molecular target: T1, rVps1 (His-Vps1; yeast dynamin homolog Vps1) (Saccharomyces cerevisiae, UniProt P21576); assay: GTPase assay, released Pi by malachite green; format: biochemical; settings: read-out: % inhibition at 100 uM
T1 sequence (P21576 1-704): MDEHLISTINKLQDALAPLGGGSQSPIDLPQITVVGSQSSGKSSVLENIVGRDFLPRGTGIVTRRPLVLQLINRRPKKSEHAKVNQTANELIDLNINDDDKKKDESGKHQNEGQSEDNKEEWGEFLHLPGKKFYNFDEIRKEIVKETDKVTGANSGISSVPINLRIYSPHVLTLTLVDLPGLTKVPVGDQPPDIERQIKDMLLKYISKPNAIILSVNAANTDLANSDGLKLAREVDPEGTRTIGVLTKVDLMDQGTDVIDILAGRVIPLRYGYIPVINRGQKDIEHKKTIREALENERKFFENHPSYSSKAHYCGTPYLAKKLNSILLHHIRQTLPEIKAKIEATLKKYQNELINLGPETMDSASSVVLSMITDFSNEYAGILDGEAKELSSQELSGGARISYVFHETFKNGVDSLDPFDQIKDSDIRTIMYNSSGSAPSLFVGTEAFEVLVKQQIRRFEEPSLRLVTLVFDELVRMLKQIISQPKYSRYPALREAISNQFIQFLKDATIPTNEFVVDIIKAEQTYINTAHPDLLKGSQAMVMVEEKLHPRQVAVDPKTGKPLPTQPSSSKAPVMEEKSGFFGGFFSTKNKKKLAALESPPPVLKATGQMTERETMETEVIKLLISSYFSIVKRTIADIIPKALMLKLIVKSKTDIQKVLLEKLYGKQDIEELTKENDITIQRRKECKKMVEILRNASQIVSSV

recombinant Vps1 = molecular target: T2, recombinant Vps1 (yeast, UniProt P21576 1-704); assay: far-Western, overlay or dot blot
T2 sequence: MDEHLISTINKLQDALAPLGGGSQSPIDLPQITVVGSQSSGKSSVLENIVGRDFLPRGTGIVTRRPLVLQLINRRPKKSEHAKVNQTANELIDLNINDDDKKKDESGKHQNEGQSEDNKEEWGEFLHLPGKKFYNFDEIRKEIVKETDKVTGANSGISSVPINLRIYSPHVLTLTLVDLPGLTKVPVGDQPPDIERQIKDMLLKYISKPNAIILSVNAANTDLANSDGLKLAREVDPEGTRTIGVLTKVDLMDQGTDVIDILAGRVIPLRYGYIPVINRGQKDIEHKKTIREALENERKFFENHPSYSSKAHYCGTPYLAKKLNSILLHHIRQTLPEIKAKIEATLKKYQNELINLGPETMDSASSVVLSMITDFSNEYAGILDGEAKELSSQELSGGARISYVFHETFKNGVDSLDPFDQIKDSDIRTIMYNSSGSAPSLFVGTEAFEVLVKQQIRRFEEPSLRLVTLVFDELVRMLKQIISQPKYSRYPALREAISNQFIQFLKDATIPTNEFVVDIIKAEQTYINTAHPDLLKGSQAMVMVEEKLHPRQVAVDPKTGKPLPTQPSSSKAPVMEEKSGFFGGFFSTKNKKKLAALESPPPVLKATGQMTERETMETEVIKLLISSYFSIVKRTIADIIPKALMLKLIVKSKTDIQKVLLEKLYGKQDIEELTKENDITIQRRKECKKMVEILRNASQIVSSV

Molecule | inhibition at 100 µM [1] [%] | binding result (recombinant Vps1)
O=C(N/N=C/c1ccc(O)c(O)c1)c1cc2ccccc2cc1O [dynasore] | ~60 | –
Vam3 full-length (1–252) (domain or fragment) MSFFDIEAQSSKGNSQQEPQFSTNQKTKELSNLIETFAEQSRVLEKECTKIGSKRDSKELRYKIETELIPNCTSVRDKIESNILIHQNGKLSADFKNLKTKYQSLQQSYNQRKSLFPLKTPISPGTSKERKDIHPRTEAVRQDPESSYISIKVNEQSPLLHNEGQHQLQLQEEQEQQQQGLSQEELDFQTIIHQERSQQIGRIHTAVQEVNAIFHQLGSLVKEQGEQVTTIDENISHLHDNMQNANKQLTRA | – | binds
SNARE domain of Vam3 (190–252) (domain or fragment) TIIHQERSQQIGRIHTAVQEVNAIFHQLGSLVKEQGEQVTTIDENISHLHDNMQNANKQLTRA | – | binds
